# Laboratory results taken from PMC9313427, “Identification and Characterization of an RRM-Containing, RNA Binding Protein in Acinetobacter baumannii”.
# T1: rAB-Elavl (Acinetobacter baumannii, UniProt D0CAL6 1-86)
# T1 sequence: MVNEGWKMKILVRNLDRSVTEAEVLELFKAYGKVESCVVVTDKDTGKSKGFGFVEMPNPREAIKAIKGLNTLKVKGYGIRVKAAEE
# B1: ARE pos 19 (ssRNA)
# RNA: AUUAUUUAUUAUUUAUUUA
# B2: ARE pos 11 (ssRNA)
# RNA: AUUAUUUAUUA
# B3: ARE neg (ssRNA)
# RNA: ACCACCCACCACCCACCCACCACCCA
# B4: ARE pos (ssRNA)
# RNA: AUUAUUUAUUAUUUAUUUAUUAUUUA
# Key:
# Settings in all cases: protein: recombinant; tags: C-terminal 6xHis; label: 5'-biotin; single strand
# rAB-Elavl [1] = target: T1, rAB-Elavl; assay: AlphaScreen saturation (probe length series); EC50; unit implied; AlphaScreen: 25 mM HEPES pH 7.4, 100 mM NaCl, 0.1% BSA, RT; REMSA: 20 mM HEPES pH 7.5, 50 mM KCl, 450 uM BSA, 0.25% glycerol, RT (gel at 4 C); NMR: 20 mM HEPES
# rAB-Elavl [2] = target: T1, rAB-Elavl; assay: AlphaScreen saturation (probe length series); EC50 not converged; legend: minimal length for binding is 19 nt; AlphaScreen: 25 mM HEPES pH 7.4, 100 mM NaCl, 0.1% BSA, RT; REMSA: 20 mM HEPES pH 7.5, 50 mM KCl, 450 uM BSA, 0.25% glycerol, RT (gel at 4 C); NMR: 20 mM HEPES
# rAB-Elavl [3] = target: T1, rAB-Elavl; assay: AlphaScreen saturation; EC50, probe titrated, 500 nM protein; AlphaScreen: 25 mM HEPES pH 7.4, 100 mM NaCl, 0.1% BSA, RT; REMSA: 20 mM HEPES pH 7.5, 50 mM KCl, 450 uM BSA, 0.25% glycerol, RT (gel at 4 C); NMR: 20 mM HEPES
# rAB-Elavl [4] = target: T1, rAB-Elavl; assay: HTRF-FRET saturation; EC50; unit implied; legend: not well bound; AlphaScreen: 25 mM HEPES pH 7.4, 100 mM NaCl, 0.1% BSA, RT; REMSA: 20 mM HEPES pH 7.5, 50 mM KCl, 450 uM BSA, 0.25% glycerol, RT (gel at 4 C); NMR: 20 mM HEPES
# rAB-Elavl [5] = target: T1, rAB-Elavl; assay: HTRF-FRET saturation; EC50; AlphaScreen: 25 mM HEPES pH 7.4, 100 mM NaCl, 0.1% BSA, RT; REMSA: 20 mM HEPES pH 7.5, 50 mM KCl, 450 uM BSA, 0.25% glycerol, RT (gel at 4 C); NMR: 20 mM HEPES
# rAB-Elavl [6] = target: T1, rAB-Elavl; assay: AlphaScreen saturation; EC50, probe titrated, 500 nM protein; conflicts with 35.62 nM in Fig 8C; AlphaScreen: 25 mM HEPES pH 7.4, 100 mM NaCl, 0.1% BSA, RT; REMSA: 20 mM HEPES pH 7.5, 50 mM KCl, 450 uM BSA, 0.25% glycerol, RT (gel at 4 C); NMR: 20 mM HEPES
# rAB-Elavl [7] = target: T1, rAB-Elavl; assay: AlphaScreen time-course kinetics (koff/kon); koff 0.02687 min-1; kon printed as 2.035 M-1 min-1 (exponent apparently lost); AlphaScreen: 25 mM HEPES pH 7.4, 100 mM NaCl, 0.1% BSA, RT; REMSA: 20 mM HEPES pH 7.5, 50 mM KCl, 450 uM BSA, 0.25% glycerol, RT (gel at 4 C); NMR: 20 mM HEPES
# rAB-Elavl [8] = target: T1, rAB-Elavl; assay: AlphaScreen saturation (probe length series); EC50; unit implied; named ARE pos 29 nt in text; AlphaScreen: 25 mM HEPES pH 7.4, 100 mM NaCl, 0.1% BSA, RT; REMSA: 20 mM HEPES pH 7.5, 50 mM KCl, 450 uM BSA, 0.25% glycerol, RT (gel at 4 C); NMR: 20 mM HEPES
binder,measurement,setting,value
B1,apparent K (half saturation),rAB-Elavl [1],64.8 nM
B2,binding result,rAB-Elavl [2],no binding
B3,apparent K (half saturation),rAB-Elavl [3],257 nM
same,apparent K (half saturation),rAB-Elavl [4],946 nM
B4,apparent K (half saturation),rAB-Elavl [5],35.1 nM
same,apparent K (half saturation),rAB-Elavl [6],0.5 nM
same,Kd,rAB-Elavl [7],13.2 nM
same,apparent K (half saturation),rAB-Elavl [8],35.6 nM
